Assay results: US20220298218A1 (ANTAG THERAPEUTICS, published 2022)
Where no end group is shown, it is not given here. [ ]: non-standard residue; d: D form. The star is where a group is joined. C16 diacid = O=C(O)CCCCCCCCCCCCCCC(=O)*; Aib = CC(C)(N)C(=O)O

T1: human GIP receptor (human, UniProt P48546 22-466)
T1 sequence (looked up): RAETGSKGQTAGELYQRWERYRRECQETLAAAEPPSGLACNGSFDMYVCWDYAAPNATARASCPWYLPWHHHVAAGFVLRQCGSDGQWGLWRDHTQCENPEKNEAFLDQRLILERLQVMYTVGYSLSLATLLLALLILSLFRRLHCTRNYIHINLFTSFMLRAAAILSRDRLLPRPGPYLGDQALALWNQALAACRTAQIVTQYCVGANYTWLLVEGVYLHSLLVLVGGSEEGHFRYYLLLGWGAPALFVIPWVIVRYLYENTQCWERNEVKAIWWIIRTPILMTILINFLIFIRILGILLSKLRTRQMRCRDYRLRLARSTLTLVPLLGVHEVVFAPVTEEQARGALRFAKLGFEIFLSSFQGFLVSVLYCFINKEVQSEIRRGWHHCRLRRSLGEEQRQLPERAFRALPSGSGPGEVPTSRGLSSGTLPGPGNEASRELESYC


Target: T1, human GIP receptor
Experiment: cell-based or functional assay

Binder	cAMP agonism % Emax [%]	cAMP antagonism [nM]	cAMP antagonism % inhib [%]	cAMP antagonism pIC50
TFISDYKIAMDKIHQQDFVNWLLAQKPSSGAPPPS (HELM PEPTIDE1{T.F.I.S.D.Y.K.I.A.M.D.K.I.H.Q.Q.D.F.V.N.W.L.L.A.Q.K.P.S.S.G.A.P.P.P.S}|PEPTIDE2{[O=C(O)CCCCCCCCCCCCCCC(=O)[*:2]].[gGlu]}$PEPTIDE1,PEPTIDE2,7:R3-2:R2$$$V2.0; N-terminus assumed; SMILES CC[C@H](C)[C@H](NC(=O)[C@H](CCCCNC(=O)CC[C@H](NC(=O)CCCCCCCCCCCCCCC(=O)O)C(=O)O)NC(=O)[C@H](Cc1ccc(O)cc1)NC(=O)[C@H](CC(=O)O)NC(=O)[C@H](CO)NC(=O)[C@@H](NC(=O)[C@H](Cc1ccccc1)NC(=O)[C@@H](N)[C@@H](C)O)[C@@H](C)CC)C(=O)N[C@@H](C)C(=O)N[C@@H](CCSC)C(=O)N[C@@H](CC(=O)O)C(=O)N[C@@H](CCCCN)C(=O)N[C@H](C(=O)N[C@@H](Cc1c[nH]cn1)C(=O)N[C@@H](CCC(N)=O)C(=O)N[C@@H](CCC(N)=O)C(=O)N[C@@H](CC(=O)O)C(=O)N[C@@H](Cc1ccccc1)C(=O)N[C@H](C(=O)N[C@@H](CC(N)=O)C(=O)N[C@@H](Cc1c[nH]c2ccccc12)C(=O)N[C@@H](CC(C)C)C(=O)N[C@@H](CC(C)C)C(=O)N[C@@H](C)C(=O)N[C@@H](CCC(N)=O)C(=O)N[C@@H](CCCCN)C(=O)N1CCC[C@H]1C(=O)N[C@@H](CO)C(=O)N[C@@H](CO)C(=O)NCC(=O)N[C@@H](C)C(=O)N1CCC[C@H]1C(=O)N1CCC[C@H]1C(=O)N1CCC[C@H]1C(=O)N[C@@H](CO)C(=O)O)C(C)C)[C@@H](C)CC) [AT632]	0	8.41	100	8.1
Ac-EGTFISEYSIAMEKIK(C16 diacid)QQDFVNWLLAQKPSSGAPPPS-OH (SMILES CC[C@H](C)[C@H](NC(=O)[C@H](CO)NC(=O)[C@H](Cc1ccc(O)cc1)NC(=O)[C@H](CCC(=O)O)NC(=O)[C@H](CO)NC(=O)[C@@H](NC(=O)[C@H](Cc1ccccc1)NC(=O)[C@@H](NC(=O)CNC(=O)[C@H](CCC(=O)O)NC(C)=O)[C@@H](C)O)[C@@H](C)CC)C(=O)N[C@@H](C)C(=O)N[C@@H](CCSC)C(=O)N[C@@H](CCC(=O)O)C(=O)N[C@@H](CCCCN)C(=O)N[C@H](C(=O)N[C@@H](CCCCNC(=O)CCCCCCCCCCCCCCC(=O)O)C(=O)N[C@@H](CCC(N)=O)C(=O)N[C@@H](CCC(N)=O)C(=O)N[C@@H](CC(=O)O)C(=O)N[C@@H](Cc1ccccc1)C(=O)N[C@H](C(=O)N[C@@H](CC(N)=O)C(=O)N[C@@H](Cc1c[nH]c2ccccc12)C(=O)N[C@@H](CC(C)C)C(=O)N[C@@H](CC(C)C)C(=O)N[C@@H](C)C(=O)N[C@@H](CCC(N)=O)C(=O)N[C@@H](CCCCN)C(=O)N1CCC[C@H]1C(=O)N[C@@H](CO)C(=O)N[C@@H](CO)C(=O)NCC(=O)N[C@@H](C)C(=O)N1CCC[C@H]1C(=O)N1CCC[C@H]1C(=O)N1CCC[C@H]1C(=O)N[C@@H](CO)C(=O)O)C(C)C)[C@@H](C)CC) [AT635]	5	1.12	87	9
Ac-EGTFISDYSIAMDKIK(C16 diacid)QQDFVNWLLAQKPSSGAPPPS-OH (SMILES CC[C@H](C)[C@H](NC(=O)[C@H](CO)NC(=O)[C@H](Cc1ccc(O)cc1)NC(=O)[C@H](CC(=O)O)NC(=O)[C@H](CO)NC(=O)[C@@H](NC(=O)[C@H](Cc1ccccc1)NC(=O)[C@@H](NC(=O)CNC(=O)[C@H](CCC(=O)O)NC(C)=O)[C@@H](C)O)[C@@H](C)CC)C(=O)N[C@@H](C)C(=O)N[C@@H](CCSC)C(=O)N[C@@H](CC(=O)O)C(=O)N[C@@H](CCCCN)C(=O)N[C@H](C(=O)N[C@@H](CCCCNC(=O)CCCCCCCCCCCCCCC(=O)O)C(=O)N[C@@H](CCC(N)=O)C(=O)N[C@@H](CCC(N)=O)C(=O)N[C@@H](CC(=O)O)C(=O)N[C@@H](Cc1ccccc1)C(=O)N[C@H](C(=O)N[C@@H](CC(N)=O)C(=O)N[C@@H](Cc1c[nH]c2ccccc12)C(=O)N[C@@H](CC(C)C)C(=O)N[C@@H](CC(C)C)C(=O)N[C@@H](C)C(=O)N[C@@H](CCC(N)=O)C(=O)N[C@@H](CCCCN)C(=O)N1CCC[C@H]1C(=O)N[C@@H](CO)C(=O)N[C@@H](CO)C(=O)NCC(=O)N[C@@H](C)C(=O)N1CCC[C@H]1C(=O)N1CCC[C@H]1C(=O)N1CCC[C@H]1C(=O)N[C@@H](CO)C(=O)O)C(C)C)[C@@H](C)CC) [AT633]	23	–	–	~8.8
[Aib]GTFISDYSIAMDKIK(C16 diacid)QQDFVNWLLAQKPSSGAPPPS-OH (N-terminus assumed; SMILES CC[C@H](C)[C@H](NC(=O)[C@H](CO)NC(=O)[C@H](Cc1ccc(O)cc1)NC(=O)[C@H](CC(=O)O)NC(=O)[C@H](CO)NC(=O)[C@@H](NC(=O)[C@H](Cc1ccccc1)NC(=O)[C@@H](NC(=O)CNC(=O)C(C)(C)N)[C@@H](C)O)[C@@H](C)CC)C(=O)N[C@@H](C)C(=O)N[C@@H](CCSC)C(=O)N[C@@H](CC(=O)O)C(=O)N[C@@H](CCCCN)C(=O)N[C@H](C(=O)N[C@@H](CCCCNC(=O)CCCCCCCCCCCCCCC(=O)O)C(=O)N[C@@H](CCC(N)=O)C(=O)N[C@@H](CCC(N)=O)C(=O)N[C@@H](CC(=O)O)C(=O)N[C@@H](Cc1ccccc1)C(=O)N[C@H](C(=O)N[C@@H](CC(N)=O)C(=O)N[C@@H](Cc1c[nH]c2ccccc12)C(=O)N[C@@H](CC(C)C)C(=O)N[C@@H](CC(C)C)C(=O)N[C@@H](C)C(=O)N[C@@H](CCC(N)=O)C(=O)N[C@@H](CCCCN)C(=O)N1CCC[C@H]1C(=O)N[C@@H](CO)C(=O)N[C@@H](CO)C(=O)NCC(=O)N[C@@H](C)C(=O)N1CCC[C@H]1C(=O)N1CCC[C@H]1C(=O)N1CCC[C@H]1C(=O)N[C@@H](CO)C(=O)O)C(C)C)[C@@H](C)CC) [AT637]	0	2.23	89	8.7
VGTFISDYSIAMDKIK(C16 diacid)QQDFVNWLLAQKPSSGAPPPS-OH (N-terminus assumed; SMILES CC[C@H](C)[C@H](NC(=O)[C@H](CO)NC(=O)[C@H](Cc1ccc(O)cc1)NC(=O)[C@H](CC(=O)O)NC(=O)[C@H](CO)NC(=O)[C@@H](NC(=O)[C@H](Cc1ccccc1)NC(=O)[C@@H](NC(=O)CNC(=O)[C@@H](N)C(C)C)[C@@H](C)O)[C@@H](C)CC)C(=O)N[C@@H](C)C(=O)N[C@@H](CCSC)C(=O)N[C@@H](CC(=O)O)C(=O)N[C@@H](CCCCN)C(=O)N[C@H](C(=O)N[C@@H](CCCCNC(=O)CCCCCCCCCCCCCCC(=O)O)C(=O)N[C@@H](CCC(N)=O)C(=O)N[C@@H](CCC(N)=O)C(=O)N[C@@H](CC(=O)O)C(=O)N[C@@H](Cc1ccccc1)C(=O)N[C@H](C(=O)N[C@@H](CC(N)=O)C(=O)N[C@@H](Cc1c[nH]c2ccccc12)C(=O)N[C@@H](CC(C)C)C(=O)N[C@@H](CC(C)C)C(=O)N[C@@H](C)C(=O)N[C@@H](CCC(N)=O)C(=O)N[C@@H](CCCCN)C(=O)N1CCC[C@H]1C(=O)N[C@@H](CO)C(=O)N[C@@H](CO)C(=O)NCC(=O)N[C@@H](C)C(=O)N1CCC[C@H]1C(=O)N1CCC[C@H]1C(=O)N1CCC[C@H]1C(=O)N[C@@H](CO)C(=O)O)C(C)C)[C@@H](C)CC) [AT636]	0	1.71	87	8.8
PGTFISDYSIAMDKIK(C16 diacid)QQDFVNWLLAQKPSSGAPPPS-OH (N-terminus assumed; SMILES CC[C@H](C)[C@H](NC(=O)[C@H](CO)NC(=O)[C@H](Cc1ccc(O)cc1)NC(=O)[C@H](CC(=O)O)NC(=O)[C@H](CO)NC(=O)[C@@H](NC(=O)[C@H](Cc1ccccc1)NC(=O)[C@@H](NC(=O)CNC(=O)[C@@H]1CCCN1)[C@@H](C)O)[C@@H](C)CC)C(=O)N[C@@H](C)C(=O)N[C@@H](CCSC)C(=O)N[C@@H](CC(=O)O)C(=O)N[C@@H](CCCCN)C(=O)N[C@H](C(=O)N[C@@H](CCCCNC(=O)CCCCCCCCCCCCCCC(=O)O)C(=O)N[C@@H](CCC(N)=O)C(=O)N[C@@H](CCC(N)=O)C(=O)N[C@@H](CC(=O)O)C(=O)N[C@@H](Cc1ccccc1)C(=O)N[C@H](C(=O)N[C@@H](CC(N)=O)C(=O)N[C@@H](Cc1c[nH]c2ccccc12)C(=O)N[C@@H](CC(C)C)C(=O)N[C@@H](CC(C)C)C(=O)N[C@@H](C)C(=O)N[C@@H](CCC(N)=O)C(=O)N[C@@H](CCCCN)C(=O)N1CCC[C@H]1C(=O)N[C@@H](CO)C(=O)N[C@@H](CO)C(=O)NCC(=O)N[C@@H](C)C(=O)N1CCC[C@H]1C(=O)N1CCC[C@H]1C(=O)N1CCC[C@H]1C(=O)N[C@@H](CO)C(=O)O)C(C)C)[C@@H](C)CC) [AT638]	0	14.7	85	7.8
